Measured values reported in patent US20070004909A1 (MacroGenics, published 2007).

Columns and labels:
soluble CD16A (sCD16A) [1] = biological target: T1, soluble CD16A (sCD16A) (UniProt P08637 17-208, limits assumed); experiment: SPR (BIAcore), sCD16 immobilised, diabody injected for 60 s
T1 construct: extracellular domain; Amine-coupled to the chip in SPR; biotin- or HRP-conjugated as the probe in the sandwich ELISAs; also called FcγRIIIA; sCD16A-Biotin
Method: (§1) The binding of h2B6-h3G8 CBD, h2B6 CMD and h3G8 CMD to sCD16A, sCD32B, and sCD32A (negative control) was assayed by SPR analysis. h3G8 scFv was also tested as a control. (A) Binding to sCD16; (B) Binding to sCD32B and (C) Binding to sCD32A. Diabodies were injected at a concentration of 100 NM, and scFv at a concentration of 200 nM, over receptor surfaces at a flow rate of […] for 60 sec.

soluble CD32B (sCD32B) [2] = biological target: T2, soluble CD32B (sCD32B) (UniProt P31994 43-217, limits assumed); experiment: SPR (BIAcore 1000); receptor amine-coupled (~1000 RU), analyte 6.25-200 nM; units not printed (koff/kon implies nM)
T2 construct: extracellular domain; As immobilised on the BIAcore chip; also called FcγRIIB
T2 sequence (looked up): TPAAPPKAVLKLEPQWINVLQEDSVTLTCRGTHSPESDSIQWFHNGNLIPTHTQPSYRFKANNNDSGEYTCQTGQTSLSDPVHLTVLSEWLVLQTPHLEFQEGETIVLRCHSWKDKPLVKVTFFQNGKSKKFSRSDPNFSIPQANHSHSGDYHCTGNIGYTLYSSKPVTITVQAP
Method: (§2) The binding of h2B6-h3G8 CBD, h2B6 CMD and h3G8 CMD to sCD16A, and sCD32B was assayed by SPR analysis. h3G8 scFv was also tested as a control. (A) Binding of to h3G8 CMD sCD16A; (B) Binding of h2B6-h3G8 CBD to sCD16A; (C) Binding of h3G8 scFv to sCD16A; (D) Binding of h2B6 CMD to sCD32B; and (E) Binding of h2B6-h3G8 CBD to sCD32B. Diabodies were injected at concentrations of 6.25-200 nM over receptor surfaces at a flow rate of […] for 180 sec.
(§3) SPR analysis was also used to estimate the kinetic and equilibrium constants of the CMDs and h2B6-h3G8 CBD to sCD16 and/or sCD32B. Results were compared to the same constants calculated for an h3G8 scFV. FIGS. 7A-E show the graphical results of the SPR analysis. The kinetic on and off rates, as well as the equilibrium constant, calculated from the results depicted in FIG. 7 are provided in Table 13.

soluble CD32A (sCD32A) = biological target: T3, soluble CD32A (sCD32A) (UniProt P12318 34-217, limits assumed); experiment: SPR (BIAcore), sCD32A (negative control receptor) immobilised, diabody injected for 60 s
T3 construct: extracellular domain; Negative control surface in SPR; also called control receptor
T3 sequence (looked up): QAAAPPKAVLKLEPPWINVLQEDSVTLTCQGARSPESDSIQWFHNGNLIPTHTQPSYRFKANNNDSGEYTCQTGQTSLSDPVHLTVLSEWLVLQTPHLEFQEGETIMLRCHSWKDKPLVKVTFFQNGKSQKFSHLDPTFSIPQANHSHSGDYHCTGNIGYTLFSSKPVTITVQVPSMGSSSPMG
Method: as §1

soluble CD16A (sCD16A) [3] = biological target: T1, soluble CD16A (sCD16A); experiment: sandwich ELISA: sCD32B coated on the plate (figure legend), purified diabody diluted 1:25 to 1:100, HRP-conjugated sCD16A as the probe; OD450
soluble CD16A (sCD16A) [4] = biological target: T1, soluble CD16A (sCD16A); experiment: SPR (BIAcore 1000); receptor amine-coupled (~1000 RU), analyte 6.25-200 nM; units not printed (koff/kon implies nM)
Method: as §2, §3

sCD32B-Ig = biological target: T4, sCD32B-Ig (UniProt P31994 43-217); experiment: sandwich ELISA: sCD32B-Ig coated on the plate, diabody titrated, detected with labelled sCD16A; OD450
T4 construct: extracellular domain; also called CD32B (ELISA coat); sCD32B (target protein of the sandwich ELISAs); not shown: Ig part of sCD32B-Ig is not described
T4 sequence (looked up): T2 sequence (looked up)
Method: The binding of h2B6-h3G8 CBD to sCD32B and sCD16A was assayed in a sandwich ELISA. sCD32B was used as the target protein. The secondary probe was HRP conjugated sCD16A. h3G8 CMD, which binds CD16A, was used as control.
ELISA: The binding of eluted and purified diabodies was characterized by ELISA assay, as described in 5.4.2. 50 ul/well of a 2 ug/ml solution of sCD32B-Ig was coated on 96-well Maxisorp plate in Carbonate buffer at 4° C. over night. The plate was washed three times with PBS-T (PBS, 0.1% Tween 20) and blocked by 0.5% BSA in PBS-T for 30 minutes at room temperature. Subsequently, h2B6-h3G8 CBD, h2B6 CMD, or h3G8 CMD were diluted into the blocking buffer in a serial of two-fold dilutions to generate a range of diabody concentrations, from 0.5 μg/ml to 0.001 μg/ml. The plate was then incubated at room temperature for 1 hour. After washing with PBS-T three times, 50 ul/well of 0.2 ug/ml sCD16A-Biotin was added to each well. The plate was again incubated at room temperature for 1 hour. After washing with PBS-T three times, 50 ul/well of a 1:5000 dilution of HRP conjugated streptavidin (Amersham Pharmacia Biotech) was used for detection. The HRP-streptavidin was allowed to incubate for 45 minutes at room temperature. […] The OD450 nm was read by using a 96-well plate reader and SOFTmax software, and results plotted using GraphPadPrism 3.03 software. […]

soluble CD32B (sCD32B) [5] = biological target: T2, soluble CD32B (sCD32B); experiment: SPR (BIAcore), sCD32B immobilised, diabody injected for 60 s
Method: as §1

T1 sequence (P08637 17-208 limits assumed): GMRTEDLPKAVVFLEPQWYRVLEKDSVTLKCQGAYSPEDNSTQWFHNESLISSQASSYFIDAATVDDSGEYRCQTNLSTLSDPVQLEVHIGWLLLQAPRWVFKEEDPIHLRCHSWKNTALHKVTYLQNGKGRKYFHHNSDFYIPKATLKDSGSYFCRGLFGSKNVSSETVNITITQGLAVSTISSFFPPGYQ

B1: h2B6 covalent monospecific diabody (CMD) (other)
chain 1: EIVLTQSPDFQSVTPKEKVTFTCRTSQSIGTNIHWYQQKPDQSPKLLIKEVSESISGVPSRFSGSGSGTDFTLTINSLEAEDAATYYCQQSNTWPFTFGGGTKVEIKGGGSGGGGQVQLVQSGAEVKKPGASVKVSCKASGYTFTNYWIHWVRQAPGQGLEWIGVIDPSDTYPNYNKKFKGRVTMTVVVSTSTAYMELRSLRSDDTAVYYCARNGDSDYYSGMDYWGQGTTVTVSSLGGC
chain 2: B1 chain 1
modifications: Covalent homodimer: disulfide between the C-terminal LGGC cysteines of the two identical chains.
notes: also called h2B6 CMD; h2B6 diabody
Q: Does B1 bind (soluble CD16A (sCD16A) [1])?
A: no binding (tested: 100 nM)

Q: And the Kd (soluble CD32B (sCD32B) [2])?
A: 21 nM

Q: Does B1 bind (soluble CD32A (sCD32A))?
A: no binding (tested: 100 nM)

B2: covalent bispecific diabody of constructs 15 and 16 (pMGX0752+pMGX0753) (bispecific antibody)
chain 1: EIVLTQSPDFQSVTPKEKVTFTCRTSQSIGTNIHWYQQKPDQSPKLLIKEVSESISGVPSRFSGSGSGTDFTLTINSLEAEDAATYYCQQSNTWPFTFGGGTKVEIKGGGSGGGGQVTLRESGPALVKPTQTLTLTCTFSGFSLSTSGMGVGWIRQPPGKALEWLAHIWWDDDKRYNPALKSRLTISKDTSKNQVVLTMTNMDPVDTATYYCAQINPAWFAYWGQGTLVTVSSFNRGEC
chain 2: DIVMTQSPDSLAVSLGERATINCKASQSVDFDGDSFMNWYQQKPGQPPKLLIYTTSNLESGVPDRFSGSGSGTDFTLTISSLQAEDVAVYYCQQSNEDPYTFGQGTKLEIKGGGSGGGGQVQLVQSGAEVKKPGASVKVSCKASGYTFTNYWIHWVRQAPGQGLEWIGVIDPSDTYPNYNKKFKGRVTMTVVVSTSTAYMELRSLRSDDTAVYYCARNGDSDYYSGMDYWGQGTTVTVSSVEPKSC
notes: Construct 15 = Hu2B6VL-Hu3G8VH-FNRGEC; construct 16 = Hu3G8VL-Hu2B6VH-VEPKSC; also called construct 15/16 combination
Q: Does B2 bind (soluble CD16A (sCD16A) [3])?
A: binds

B3: h3G8 covalent monospecific diabody (CMD) (other)
chain 1: DIVMTQSPDSLAVSLGERATINCKASQSVDFDGDSFMNWYQQKPGQPPKLLIYTTSNLESGVPDRFSGSGSGTDFTLTISSLQAEDVAVYYCQQSNEDPYTFGQGTKLEIKGGGSGGGGQVTLRESGPALVKPTQTLTLTCTFSGFSLSTSGMGVGWIRQPPGKALEWLAHIWWDDDKRYNPALKSRLTISKDTSKNQVVLTMTNMDPVDTATYYCAQINPAWFAYWGQGTLVTVSSLGGC
chain 2: B3 chain 1
modifications: Covalent homodimer: disulfide between the C-terminal LGGC cysteines of the two identical chains.
notes: also called h3G8 CMD; h3G8 diabody
Q: Which Kd (soluble CD16A (sCD16A) [4]) does the source give for B3 here?
A: 18 nM

Q: Does B3 bind (soluble CD32A (sCD32A))?
A: no binding (tested: 100 nM)

Q: Does B3 bind (sCD32B-Ig)?
A: no binding (tested: 0.5 ug/ml)

Q: Does B3 bind (soluble CD32B (sCD32B) [5])?
A: no binding (tested: 100 nM)
